Tested on: AT derm mice (pTek-tTA:pTetOS-Tek)
Experiment: Enforced expression of Ang1 or Ang2 in AT derm mice (triple transgenic)
Type: in vivo
Conditions: for atopic dermatitis phenotype (erythema, ear micro-haemorrhages, tail scaly plaque): transgenic overexpression in the vasculature of AT derm mice
Excerpt: Briefly, construction of the driver transgene, pTek-tTA, and the responder transgenes, pTetOS-Tek, pTetos-Ang1, and pTetos-Ang2 have been described previously. All transgenic lines were maintained and genotyped as previously described (Voskas et al. (2005) Am. J. Pathol. 166(3):843-855, Ward et al. (2004) Am. J. Pathol. 165(3):889-899, Bureau et al. (2006) Am. J. Physiol. Heart Circ. Physiol. 291(2):H948-965). Males were housed with a single female for 14 to 20 days and then separated into individual cages. CD1 mice (an outbred mouse line) were maintained in a barrier facility. All adult mice used in these studies were 2 to 6 months old.
The present inventors have previously shown that enforced overexpression of the Tie2 receptor in the vasculature results in an inflammatory skin phenotype in mice (FIG. 3A) that is consistent with many hallmarks of human atopic dermatitis/psoriasis (Voskas et al. (2005) Am. J. Pathol. 166(3), 843-855, Voskas et al. (2009) J. Leukoc. Biol. 84(1), 59-67). […] Using common mouse transgenic approaches, a system was devised in which the impact of enforced expression of Ang1 or Ang2 could be assessed in this mouse model of inflammatory skin disease. This is the first such system where the implications of Ang1 or Ang2 expression can be simultaneously addressed in a single pathological state. […] This was marked by a gross reduction in snout, conjunctiva, ear and paw erythema (FIGS. 3C-E).

**Q.** How did the “atopic dermatitis phenotype (erythema, ear micro-haemorrhages, tail scaly plaque)” value turn out when “Ang2: Angiopoietin 2, natural antagonist of Ang1, overexpressed from the pTetOS-Ang2 transgene” was run?
**A.** exacerbated all of the noted phenotypic hallmarks

B1: Ang1: Angiopoietin 1, Tie2 ligand, overexpressed in the vasculature from the pTetOS-Ang1 transgene (protein, UniProt Q15389 16-498, looked up)
Angiopoietin-1: HIGCSNQRRSPENSGRRYNRIQHGQCAYTFILPEHDGNCRESTTDQYNTNALQRDAPHVEPDFSSQKLQHLEHVMENYTQWLQKLENYIVENMKSEMAQIQQNAVQNHTATMLEIGTSLLSQTAEQTRKLTDVETQVLNQTSRLEIQLLENSLSTYKLEKQLLQQTNEILKIHEKNSLLEHKILEMEGKHKEELDTLKEEKENLQGLVTRQTYIIQELEKQLNRATTNNSVLQKQQLELMDTVHNLVNLCTKEGVLLKGGKREEEKPFRDCADVYQAGFNKSGIYTIYINNMPEPKKVFCNMDVNGGGWTVIQHREDGSLDFQRGWKEYKMGFGNPSGEYWLGNEFIFAITSQRQYMLRIELMDWEGNRAYSQYDRFHIGNEKQNYRLYLKGHTGTAGKQSSLILHGADFSTKDADNDNCMCKCALMLTGGWWFDACGPSNLNGMFYTAGQNHGKLNGIKWHYFKGPSYSLRSTTMMIRPLDF
**Q.** For B1, which “atopic dermatitis phenotype (erythema, ear micro-haemorrhages, tail scaly plaque)” value is on record?
**A.** dramatic amelioration of disease

**Q.** What about the “epidermal hyperplasia and dermal leukocyte infiltration (histology)” value (triple transgenic mice) of the same molecule?
**A.** resolution of epidermal hyperplasia

Source: patent publication US9186390B2, “Methods and uses of TIE2 binding and/or activating agents” (Sunnybrook Health Sciences Center, priority 2010, dated 2015)
